The target in assay [1] is T1, FcγRIIIa V extracellular domain with C-terminal His tag (human, UniProt P08637 17-208).
T1 construct: extracellular domain; Soluble receptor, V158 allotype; also called FcgRIIIa V; FcgRIIIaV; not shown: His tag at the C terminus
Briefly: SPR (Biacore), antibody captured on chip, soluble FcγR as analyte, 1:1 Langmuir fit. On the procedure:
(§1) Specifically, H240-Hl134 (SEQ ID NO: 88) resulting from introduction of L234Y/L235Y/G236W/H268D/S298A into H240-Hl033 and H240-Kn132 (SEQ ID NO: 89) resulting from introduction of K326D/A330M/K334E into H240-Kn033 were constructed according to the method described in Reference Example 1.
(§2) Analysis of interaction between objective antibody and the FcγR was carried out using Biacore T100 (GE Healthcare), Biacore T200, Biacore A100, and Biacore 4000. HBS-EP+ (GE Healthcare) was used as the running buffer, and the measurement temperature was set to 25° C. Chips produced by immobilizing the antigen peptide by the amine coupling method to a Series S sensor Chip CM5 (GE Healthcare), chips produced by allowing preliminarily biotinylated antigen peptides to interact with and immobilize onto a Series S Sensor Chip SA (certified) (GE Healthcare), chips produced by immobilizing Protein L (ACTIGEN, BioVision) to Series S Sencor Chip CM5 (GE Healthcare), or chips produced by immobilizing Protein A/G (Thermo Scientific) to Series S Sencor Chip CM5 (GE Healthcare) were used. Antibodies of interest were captured onto these chips, and allowed to interact to each FcγR diluted with running buffer. To regenerate and repeatedly use the chip, the antibodies captured onto the chip were washed off by reacting 10 mM glycine-HCl, pH 1.5.
In general terms: Surface plasmon resonance follows binding to a sensor surface in real time, without labels.

For assay [2], the target named is T2, FcγRIIIa F extracellular domain with C-terminal His tag (human, UniProt P08637 17-208).
T2 construct: extracellular domain; Soluble receptor, F158 allotype; also called FcgRIIIa F; FcgRIIIaF; not shown: His tag at the C terminus
T2 sequence (P08637 17-208): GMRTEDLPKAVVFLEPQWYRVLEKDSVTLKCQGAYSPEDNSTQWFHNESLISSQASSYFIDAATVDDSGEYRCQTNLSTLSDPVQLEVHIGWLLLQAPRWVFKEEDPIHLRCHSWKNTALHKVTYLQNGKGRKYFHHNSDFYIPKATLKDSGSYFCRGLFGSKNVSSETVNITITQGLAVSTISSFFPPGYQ
The description is as above. How it is done: as §1, §2

Assay [3] deals with T3, FcγRIa extracellular domain with C-terminal His tag (human, UniProt P12314 16-292).
T3 construct: extracellular domain; Soluble receptor expressed in FreeStyle293 cells; used as analyte in Biacore; also called FcgRIa; FcgRI; not shown: His tag at the C terminus
T3 sequence (P12314 16-292): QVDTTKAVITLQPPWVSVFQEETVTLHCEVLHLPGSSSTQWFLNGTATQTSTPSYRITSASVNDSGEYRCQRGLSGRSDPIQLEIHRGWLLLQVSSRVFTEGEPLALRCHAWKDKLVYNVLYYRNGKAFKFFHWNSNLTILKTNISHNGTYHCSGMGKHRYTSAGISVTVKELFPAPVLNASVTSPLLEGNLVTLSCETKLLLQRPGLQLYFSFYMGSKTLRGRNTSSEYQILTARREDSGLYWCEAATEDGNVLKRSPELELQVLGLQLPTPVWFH
The description is as above. On the procedure:
as §2

Assay [4] deals with T4, FcγRIIb extracellular domain with C-terminal His tag (human, UniProt P31994 43-217).
T4 construct: extracellular domain; also called FcgRIIb; CD32B; not shown: His tag at the C terminus
T4 sequence (looked up): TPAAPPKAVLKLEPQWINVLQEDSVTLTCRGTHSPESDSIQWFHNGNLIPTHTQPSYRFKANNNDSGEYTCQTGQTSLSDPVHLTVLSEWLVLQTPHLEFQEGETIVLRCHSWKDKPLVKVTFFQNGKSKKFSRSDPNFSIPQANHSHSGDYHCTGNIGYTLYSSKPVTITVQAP
The description is as above. On the procedure:
as §2

The target of assay [5] is T5, FcγRIIa R extracellular domain with C-terminal His tag (human, UniProt P12318 34-217).
T5 construct: extracellular domain; Soluble receptor, R131 allotype; also called FcgRIIa R; FcgRIIaR; not shown: His tag at the C terminus
T5 sequence (looked up): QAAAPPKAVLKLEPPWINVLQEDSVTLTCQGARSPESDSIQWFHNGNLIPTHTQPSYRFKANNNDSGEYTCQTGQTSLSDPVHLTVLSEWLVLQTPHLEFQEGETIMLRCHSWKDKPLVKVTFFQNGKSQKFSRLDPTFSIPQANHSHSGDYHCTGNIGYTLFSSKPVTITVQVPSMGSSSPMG
The assay is described as above. On the procedure:
as §2

The target of assay [6] is T6, FcγRIIa H extracellular domain with C-terminal His tag (human, UniProt P12318 34-217).
T6 construct: extracellular domain; Soluble receptor, H131 allotype; also called FcgRIIa H; FcgRIIaH; not shown: His tag at the C terminus
T6 sequence (looked up): T5 sequence (looked up) with R134H
Described as above. On the procedure: as §2

In assay [7] the target is T1, FcγRIIIa V extracellular domain with …. Described as above. On the procedure:
as §2
This is another data set of the same source.

Assay [8] addresses T2, FcγRIIIa F extracellular domain with …. The description is as above. On the procedure:
as §2
The source holds these as a separate data set.

Assay [9] concerns the target T7, FcgRIIIa V (human, UniProt P08637 17-208).
T7 construct: extracellular domain; polymorphic site made after J. Clin. Invest; also called FcγRIIIa V
Nature of the assay: SPR (Biacore), antibody captured, FcgR as analyte. On the procedure: as §2
T7 sequence (P08637 17-208 F176V limits assumed): as the sequence (P08637 17-208) above, with F160V counted along it

For assay [10], the target named is T8, FcgRIa (human, UniProt P12314 16-292).
T8 construct: extracellular domain; also called FcγRIa; FcγRI
Briefly: SPR (Biacore), antibody captured, FcgR as analyte. How it is done: as §2
T8 sequence (P12314 16-292): as the sequence (P12314 16-292) above

Assay [11] addresses T9, FcgRIIIa F (human, UniProt P08637 17-208).
T9 construct: extracellular domain; polymorphic site made after J. Clin. Invest; also called FcγRIIIa F
Nature of the assay: SPR (Biacore), antibody captured, FcgR as analyte. How it is done:
as §2
T9 sequence (P08637 17-208): as the sequence (P08637 17-208) above

In assay [12] the target is T10, FcgRIIb (human, UniProt P31994 43-217).
T10 construct: extracellular domain; also called FcγRIIb; CD32B
T10 sequence (looked up): T4 sequence (looked up)
Nature of the assay: SPR (Biacore), antibody captured, FcgR as analyte. How it is done:
as §2

Assay [13] addresses T11, FcgRIIa R (human, UniProt P12318 34-217).
T11 construct: extracellular domain; also called FcγRIIa R; FcγRIIa type R
T11 sequence (looked up): T5 sequence (looked up)
Nature of the assay: SPR (Biacore), antibody captured, FcgR as analyte. How it is done: as §2

Assay [14] addresses T12, FcgRIIa H (human, UniProt P12318 34-217).
T12 construct: extracellular domain; also called FcγRIIa H; FcγRIIa type H
T12 sequence (looked up): T5 sequence (looked up) with R134H
Briefly: SPR (Biacore), antibody captured, FcgR as analyte. How it is done:
as §2

Assay [15] concerns the target T13, FcgRIIb (human, UniProt P31994 43-217).
T13 construct: extracellular domain; also called FcγRIIb; CD32B
T13 sequence (looked up): T4 sequence (looked up)
Nature of the assay: SPR (Biacore); KD of GpH7-Kn033/GpH7-Hl033/GpL16-k0 for this FcγR divided by KD of this antibody (reference itself).

Assay [16] concerns the target T14, FcgRIIa H (human, UniProt P12318 34-217).
T14 construct: extracellular domain; also called FcγRIIa H; FcγRIIa type H
T14 sequence (looked up): T5 sequence (looked up) with R134H
Described as above.

Assay [17] deals with T15, FcgRIIIa F (human, UniProt P08637 17-208).
T15 construct: extracellular domain; also called FcγRIIIa F; FcγRIIIaF
The assay is described as above.
T15 sequence (P08637 17-208): as above

Assay [18] deals with T16, FcgRIa (human, UniProt P12314 16-292).
T16 construct: extracellular domain; also called FcγRIa; FcγRI
The assay is described as above.
T16 sequence (P12314 16-292): as the sequence (P12314 16-292) above

In assay [19] the target is T17, FcgRIIa R (human, UniProt P12318 34-217).
T17 construct: extracellular domain; also called FcγRIIa R; FcγRIIa type R
T17 sequence (looked up): T5 sequence (looked up)
The description is as above.

Assay [20] has as its target T18, FcgRIIIa V (human, UniProt P08637 17-208).
T18 construct: extracellular domain; also called FcγRIIIa V; FcγRIIIaV
The assay is described as above.
T18 sequence (P08637 17-208 F176V limits assumed): as the sequence (P08637 17-208) above, with F160V counted along it

Numbering of substitutions follows the chain as printed. Numbers in names are those of the source. Like-named read-outs stand apart in the source and are kept apart here.

T1 sequence (P08637 17-208 F176V): as the sequence (P08637 17-208) above, with F160V counted along it

B1: H240-Kn061/H240-Hl071/L73-k0 (antibody, human IgG1, kappa)
heavy 1: QDQLVQSGAEVKKPGASVKVSCKASGFNIKDTYIQWVRQAPGQGLEWMGRIDPLRKQTKYREKFEGRVTITADTSTNTAYMELSSLRSEDTAVYYCVRSGREFDYWGQGTLVTVSSASTKGPSVFPLAPSSKSTSGGTAALGCLVKDYFPEPVTVSWNSGALTSGVHTFPAVLQSSGLYSLSSVVTVPSSSLGTQTYICNVNHKPSNTKVDKKVEPKSCDKTHTCPPCPAPEYYWGPSVFLFPPKPKDTLMISRTPEVTCVVVDVSDEDPEVKFNWYVDGVEVHNAKTKPREEQYNATYRVVSVLTVLHQDWLNGKEYKCKVSNKALPAPIEKTISKAKGQPREPQVCTLPPSRDELTKNQVSLWCLVKGFYPSDIAVEWESNGQPENNYKTTPPVLDSDGSFFLYSKLTVDKSRWQQGNVFSCSVMHEALHNHYTQKSLSLSP
heavy 2: QDQLVQSGAEVKKPGASVKVSCKASGFNIKDTYIQWVRQAPGQGLEWMGRIDPLRKQTKYREKFEGRVTITADTSTNTAYMELSSLRSEDTAVYYCVRSGREFDYWGQGTLVTVSSASTKGPSVFPLAPSSKSTSGGTAALGCLVKDYFPEPVTVSWNSGALTSGVHTFPAVLQSSGLYSLSSVVTVPSSSLGTQTYICNVNHKPSNTKVDKKVEPKSCDKTHTCPPCPAPELLGGPSVFLFPPKPKDTLMISRTPEVTCVVVDVSHEDPEVKFNWYVDGVEVHNAKTKPREEQYNSTYRVVSVLTVLHQDWLNGKEYKCKVSNDALPMPIEETISKAKGQPREPQVYTLPPSRCELTKNQVSLSCAVKGFYPSDIAVEWESNGQPENNYKTTPPVLDSDGSFFLVSKLTVDKSRWQQGNVFSCSVMHEALHNHYTQKSLSLSP
light: DIQMTQSPSSLSASVGDRVTITCRASQDIHKYIAWYQQKPGQAPRLLIQYTSTLQPGVPSRFSGSGSGTDYTFTISSLQPEDIATYYCLQYEQLRTFGGGTKVEIKRTVAAPSVFIFPPSDEQLKSGTASVVCLLNNFYPREAKVQWKVDNALQSGNSQESVTEQDSKDSTYSLSSTLTLSKADYEKHKVYACEVTHQGLSSPVTKSFNRGEC
notes: Heterodimerized anti-epiregulin IgG1, knobs-into-holes
In general, Kd refers to the constant that tells how readily two partners part at equilibrium. The low end stands for higher affinity, the high end for lower affinity. As to B1, the Kd in assay [1] was 1.8 nM; in assay [2] it was 5.1 nM; in assay [3] it was 0.14 nM; in [4], 1200 nM; in [5], 350 nM; in assay [6], 280 nM. The Kd in assay [7] was found to be 1.8 nM; in [8], 5.1 nM.

B2: H240-Kn061/H240-Hl071/L73-k0 (antibody, human IgG1, kappa)
heavy 1: B1 heavy 1
heavy 2: B1 heavy 2
light: B1 light
notes: Heterodimerized: L234Y/L235Y/G236W/H268D/S298A in the knob chain, K326D/A330M/K334E in the hole chain
On to B2, for which the Kd in assay [9] was found to be 1.8 nM; in [10] it was 0.14 nM; in [11], 5.1 nM; in assay [12], 1200 nM; in assay [13], 350 nM; in assay [14], 280 nM.

B3: GpH7-Kn033/GpH7-Hl033/GpL16-k0 (antibody, human IgG1, kappa)
heavy 1: not shown
heavy 2: not shown
light: DIVMTQSPLSLPVTPGEPASISCQASESLVHSNRNTYLHWYLQKPGQSPQLLIYKVSNRFSGVPDRFSGSGSGTDFTLKISRVEAEDVGVYYCSQNTHVPPTFGQGTKVEIERTVAAPSVFIFPPSDEQLKSGTASVVCLLNNFYPREAKVQWKVDNALQSGNSQESVTEQDSKDSTYSLSSTLTLSKADYEKHKVYACEVTHQGLSSPVTKSFNRGEC
notes: Anti-glypican-3 antibody; knobs-into-holes alone applied to G1d (knob chain Y349C/T366W; hole chain D356C/T366S/L368A/Y407V); also called Kn033/Hl033
As to B3, the KD ratio in assay [15], in [16], in assay [17], in [18], in assay [19] and in assay [20] was 1 fold in each case.

For the origin of these results see patent publication US20150344570A1 (published 2015).
